Laboratory results published in the nanobody polyreactivity screen of Harvey et al. (2022).

Assay: yeast display, Sf9 membrane polyspecificity reagent, FACS + sequencing; frameworks hold sequencing errors
Summary of the method: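 Nanobodies from a synthetic yeast display library (Saccharomyces cerevisiae BJ5465), induced 36–48 hours with galactose, were stained 1 hour at 4 °C with 10% biotinylated, detergent-solubilized Sf9 membrane reagent, enriched on streptavidin microbeads, then FACS-sorted. Anti-HA (expression) and streptavidin (reagent binding) fluorescence set low and high (top ~1%) gates. Polyreactivity labels come from the gate of origin. Genes were colony-PCR amplified, MiSeq 2 × 250 sequenced and filtered by CDR length.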

Sequence	polyreactivity (PSR sort gate)
QVQLVESGGGLVQAGGSLRLTCAASGRIFITNAMGWYSQAPGKEREMVAVISYIGGRTYYADSVKGRFTISRDNAKNTVYLQMNSLKPEDTAVYYCAARRSRPTYYSTGVNYWGQGTQVTVSS	high polyreactivity
QVHLVESGGGLLLAGGSLRLTCAASGSTFYSYDKGWYRQAPGKERELVAAISWNGGSTYYEDSVKGRFTISRDNAKNTVYLPMNSLKPEDTAVYYCAALRYVHGYDYWGQGTQVSVSS	high polyreactivity
QVQLVESGGGLVQAGGSLRLSCAASGLTLTWNAMGWYRQAPGKERELVAAITGSGGRTNYADSVKGRFTISRDNAKNTVYLQMNSLKPEDTAVYYCASFRWYHWGTRYDYWGQGTQVTVSS	high polyreactivity
QVQLVESGGGLVQAGGSLRLSCAASGRILVYYAMGWYRQAPGKERELVAAIRSSGSSTYYSDSVKGRFTISRDNAKNTVYLQMNSLKPEDTAVYYCAAYYYIGGKYGSQVYEYDYWGQGTQVTVSS	low polyreactivity
QVQLVESGGGLVQAGGSLRLSCAASGVNAMGWYRQAPGKEREFVAAITSIGGSTYYADSVKGRFTISRDNAKNTVYLQMNSLKPEDTAVYYCNTDRGPVKVSPLYESWGQGTQVTVSS	low polyreactivity
QVQLVESGGGLVQAGGSLRLSCAASGSTFISYAMGWSRQAPGKERELVAAISRNGGRTYYADSVKGRFTISRDNAKNTVYLQMNSLKPEDTAVYYCAAAYNSYRFDYWGQGTQVTVSS	high polyreactivity
QVQLVESGGGLVQAGGSLRLSCAASGYIFPYYTMGWYRQAPGKERELVAAITIGGSTYYADSVKGRFTISRDNAKNTVYFQMNSLKPVDTAVYYCAARSRYYDTRFDYWGQGTQVTVSS	low polyreactivity
QVQLVESGGGLVQAGGSLRLSCAASGYIFYDYAMGWYRQAPGKERELVAAIRRSTGTTYYADSVKGRFTISRDNAKNTVYLQMNSLKPEDTAFYYCAALFRPRVHRYDYWGQGTQVTVSS	low polyreactivity
QVQLVESGGGLVQAGGSLRLSCAASGRIFWWNTMGWYRQAPGKERELVASITGSGGRTSYADSVKGRFTISRDNAKNTVYLQMNSLKPEDTAVYYCAKEHVSKWSYPYYYWGQGTQVTVSS	high polyreactivity
QVQLVESGGGLVQAGGSLRISCAASGITFWYYAMGWYRQAPGKERELVAAITRSGRTNYADSVKGRFTISRDNAKNTVYLQMNSLKPEDTAVYYCNAASLRYSYTLFDSWGLGTQVTVSS	high polyreactivity
QVQLVESGGGLVQAGGSLRLSCAASGRTFYSYAIGWYREAPGKERELVASISSGGGTNYADSVKGRFTISRDNAKNTVYLQMNSLKPDDTAVYYCAAKYWIFYPYDYWGQGTQVTVSS	low polyreactivity
QVQLVESGGGLVQAGGSLRLSCAASGSTFAKNAMGWYRQAPGKERELVAAITYSGGSTYYADSVKGRFTISRDYAKNTVYLEMYSLKPEYTAVYYCAADVWWSYFRYDYWGQGTQVTVSW	low polyreactivity
QVQRVESGGGLVQAGGSLRLSCAASGNIFVYYAMGWYRQAPGKERELVAAISSDVSTYYADSVKGRFTISRDNAKNTVYLQMNSLKPEDTAVYYCATTGYGSYVIYWGQGTQVTVSS	low polyreactivity
QFQLVESGGGLLQAGGSLRLSCAASGRIFVPYVMGWYRQAPGKERELVASISDTDTSTYYADSVKGRFTISRDIAKNIVYLQMNSLKPEDTAVYYWNVDYWGQGTQVTVSS	low polyreactivity
QVQLVESGGGLVQAGGSLRLSCAASGNIYNNYDMGWYRPAPGKERDLVARIDSGGSTNYADSVKGRFTISRDNAKNTVYLQMNCLKPEDTAVYYCAADFLSHWLLEMDYWGQGTQVTVSS	low polyreactivity
QVQLVESGGGLVQAGGSLRLSCAASGRIFGVNAMGRYRQAPGKERELVADISSGGSTYYADSVKGRFTISRDNAKNTVYLQMNSLNPEDTAVYSCAVDKYVFVSYSFYFEYDYWGQGTQVTVSS	low polyreactivity

Sequence	polyreactivity (PSR sort gate)
QVQLVESGGGLVQAGGSLRLSCAASGFTFGRTVRGWYRQAPGKERELVAAISSSGGSTYYADSVKGRFTISRDNAKNTVYLQMNSLKPEDTAVYYCAAVLVSWYRNPQYDYWGQGTQVTVSS	high polyreactivity
QVQLVESGGGLVQAGGSLRLSCAASGRTFIGYAMGWYRQAPGKERELVATISVSGGSTYYADSVKGRFTISRDNAKNTVYLQMNSLKPEVTAVYYCAKAYLRYYDGPYDYWGHGTQVTVSS	low polyreactivity
QVQLVESGGGLVQAGGSLRLSCAASGSIFYSYAMGWYRQAPGKERELVAAISFSGGSTYYADSVKGRFTISRDNAKNTVYLHMNSLKPEDPAVYYCNTLSADTFDYWGQGTQVTVSS	low polyreactivity
QVQLVESGGGLVQAGGSLRLSCAASGSIFDSNAMGWYRQAPGKERELVASIDRGGDTNYADSVKGRFTISRDNAKNTVYLQMNSLKPEDTAVYYCAAYYYKWVWIGMDYWGQGTQVTVSS	low polyreactivity
QVQLVESGGGLVQAGGSLRLSCAASGFIFPTNTMGWYRQAPGKEREFVARITRSGTNTYYADSVKGRFTISRDNAKNTVYLQMNSLKPEDTAVYYCARRGTSSYRRYWLDSASNMDYWGQGTQVTVSS	high polyreactivity
QVQLGESGGGLVQAGGSLRLSCAASAYIFGSYAMGRSRQAAGKERELVATISYRAGRTYYADSVKGRFTISRDNAKNTVYLQMNSLKPEYTAVYFSDADFVIDLEYDYWGQGTQVTVSS	low polyreactivity
QVQLVESGGGLVQAGGSLRLSCAASGLTFRYYTMGWYRQAPVKERELVAAISRGGSTTYADSVKGRFTISRVNAKNTVYLQMNSLKPEDTAVYYCAVRPGTWSNYYAGGKKYDYWGLGTQVTVSS	high polyreactivity
QVQLVESGGGLVQAGGSLRLSCAASGRTFYYNTMGWYRQAPGKERELVATITSSGGRTYYADSVKGRFTISRDNAKNTVYLQMNSLKPEDTAVYYCNAALSRAFKHSTGYDYWGQGTQVTVSS	low polyreactivity
QVQLVESGGGLVQAGGSLRLSCAASGNTLDVNAMGWYRQAPWKERELVAAITSGGSTNYADSVKGRFTISRDNAKNTVYLQMNSLKPEDTAVYYCAKGSGVTYVNETLNTDYGYWGQGTQVTVSS	low polyreactivity
QVLLVESGGGLVQAGGSLRLSCAASGLTFRYYAMGWYRQAPGKERELVAAITSGGSTYYADSVKGRFTISRDNAKNTVYLQMNSLKPEDTAVYYCNKLLGRTVRHDYWGQGTQVTVSS	high polyreactivity
QVQLVESGGGLVQAGGSLRLSGAASGSTFRRNAMGWSRQAPGKERELVAAISRRGGRTYYADSVKGRFTISRDNAKNTVYLQLNSLKPEDTAVYYCAADVIYSGDYWGQGTQVTVSS	high polyreactivity
QVQLVESGGGLVQAGGSLRLSCDASGSTFWYAMGWYIKAPGKEMDLVAAITARGGRTYYADSVKGRFTISRDNAKNTVYLQMNSLKPEDTAVYYCARLSYAGGQWIIGKYDYWGQGTQVTVSS	high polyreactivity
QVQLVESGGGLVQAGGSLRLSCAASGFTFFTYAMGWYRQAPGKERELVAAITSGGSTNYADSVKGRFTISRDNAKNTVYLQMNSLKPEDTAVYYCATRAYSDATTFYGYQRSDSWGQGTQVTVSS	low polyreactivity
QVQLVESGGGLVQAGGSLRLSCAASGSTFGSNAMGWYRQAPGKERELVATITRRSGSTYYADSVKGRFTISRDNAKNTVYLQMNSLKPEDTAVYYCARVGFWLQYDYWGQGTQVTVSS	high polyreactivity
QVQLVESGGGLVQAGGSLRVSCAASGSTFTDYDMVWYRQAPGKERELVAAITSGGSTNYADSVKGRFTISRDNAKNTVYLHMNSLKPEDTAVYYCNAERDSPTLNLDRGWEYDYWGQGTQVTVSS	low polyreactivity
QVQLVESGGGLVQAGGSLRLSCAASGSIFYANAMGWYRQAPAKERELVAAIRSGGSTNYADSVKGRFTISRDNAKKTVYLQMNSLKPEDTAVYYCAAVWRYWSGQKVGYWGQGTQVTVSS	high polyreactivity
